Assay results taken from US20220112288A1 (published 2022).
Residue numbers refer to the chain shown, from its start.

B1: 75110_10O16A (antibody, V domains shown)
VH: EVQLVESGGGLVQPGGSLRLSCAASGFTFSNSDMHWVRQATGKGLEWVSTIGTAGDTYYPGSVKGRFTISRENAKNSLYLQMNSLRAGDTAVYYCARGGLYYYGMDVWGQGTTVTVSS
VL: ENVLTQSPGTLSLSPGERATLSCRASQSVSSSYLAWYQQKPGQAPRLLIYGASSRATGIPDRFSGSGSGTDFTLTISRLEPEDFAVYYCHQFGSSPFTFGPGTKVDIK
notes: Non-clonal AlivaMab Mouse Kappa hybridoma supernatant, captured by anti-mouse IgG Fc (human V regions, mouse Fc); also called 75110_10016A
B2: 75110_05E13A (antibody, V domains shown)
VH: EVQLVESGGDLVKPGGSLRLSCAASGFSFSNAWMSWVRQAPGKGLEWVGRVESKTDGGTTDYAAPVKDRFTISRDDSKYTLYLQMNSLKTEDSAVYYCTIGGGFGLELYGFFDYWGQGTLVTVSS
VL: DIQMTQSPSTLSASVGDRVTITCRASQSISSWLAWYQQKPGKAPMLLIYKASSLESGVPSRFSGSGSGTEFTLTISSLQPDDFATYYCLQYNSYYTFGQGTKLEIK
notes: Tested as clonal hybridoma supernatant of an AlivaMab Mouse Kappa antibody (human variable regions, kappa; detected with anti-mouse Fc)
B3: 75110_03I23A (antibody, V domains shown)
VH: QVQLQESGPGLVKPSETLSLTCTASGGSITSYYWNWIRQPAGKGLEWIGRIYTSGSTNYNPSLKSRVTMSVDTSKNQFSLKLSSVTAADTAVYYCARDPGYSDAFNIWGQGTMVTVSS
VL: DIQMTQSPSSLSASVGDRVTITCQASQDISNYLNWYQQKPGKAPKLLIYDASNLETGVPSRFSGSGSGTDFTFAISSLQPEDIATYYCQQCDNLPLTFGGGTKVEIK
notes: as for B2
B4: 75110_04G02A (antibody, V domains shown)
VH: not shown
VL: DIVMTQSPDSLAVSLGERATINCKSSQSVLYSSNNKNYLAWYQQKPGQPPKLLFYWASARESGVPDRFSGSGSGTDFTLTISSLQAEDVALYYCQQYFGSFPTFGQGTKLEIK
notes: as for B2
B5: 75110_04B08A (antibody, V domains shown)
VH: QVQLVESGGGVVQPGRSLRLSCTASGFNFINYGIHWVRQAPGKGLEWVTIIWYDGSKKYYADSVKGRFAISRDNSKNTLYLQMNSLRAEDTAVYYCAREDDWNDGLAYWGQGTLVTVSS
VL: AIQMTQSPSSLSASVGDRVTITCRASQDIRNDLGWYQQKPGKAPNLLIYAASNLQSGVPSRFSGSGSGTDFTLTISSLQPEDFATYYCLQDSNYPRTFGQGTKVEIK
notes: as for B2
B6: 75110_03L12A (antibody, V domains shown)
VH: QVQLQQWGAGLLKPSETLSLTCAVYGGSFSGYYWSWIRQPPGKGLEWIGEINHSGSTNYNPSLKSRVTISVDTSENQFSLTLISVTAADTAVYYCVRLINWFDPWGQGTLVTVSS
VL: DIQMTQSPSSVSASVGDRVTITCRASQDISNWLAWYQQKPGKAPKLLIFAASSLQSGVPSRFSGSGSGTDFTLTISSLQPDDFATYYCQQANSFPYTFGQGTNLGIK
notes: as for B2
B7: 75110_05B13A (antibody, V domains shown)
VH: QVLLEQWGAGLLKPSETLSLTCAVYGGSFSGYYWTWIRQPPGKGLEWIGEINHRGSTNYNPSLKSRVTISIDTSKNQFSLKVKSVTAADTAMYYCTRPDSNWFDPWGQGTLVTVSS
VL: B6 VL with D81E, Y96L, Q100G, N103K, L104V, G105E
notes: as for B2
B8: 75110_04P08A (antibody, V domains shown)
VH: QVQLQQWGAGLLKPSETLSLTCAVYGGSLSGYYWSWIRQSPGKGLEWIGEINQSGSTNYNPSLKSRVTISVDTSKDQFSLRLTSVTAADTAVYYCTRVLNWFDPWGRGTLVTVSS
VL: B6 VL with I21L, F49Y, P80T, D81E, N103K, G105E
notes: as for B2
B9: 75110_05E05A (antibody, V domains shown)
VH: QVQLQESGPGLVKPSETLSLTCTVSGGSIGSYYWSWIRQPAGKGLEWIGRIYTSGSTNYNPSLKSRVTMSFDTSKNQFSLKLNSVTAADTAVYYCATDGGVGDSLDYWGQGTLVTVSS
VL: DIVMTQTPLSLPVTPGEPASISCRSSQSLLDSDDGNTYLDWYLQKPGQSPQLLIYTLSYRASGVPDRFSGSGSGTDFTLKISRVEAEDVGVYYCMQHIEFPFTFGPGTKVDIK
notes: as for B2
B10: 75110_03I08A (antibody, V domains shown)
VH: QVQLQESGPGLVKPSETLSLTCTVSGGSISSYYWSWIRQPPGKGLEWIGYIYYSGSTNYNPSLKSRVTISVDTSKNQFSLKLSSVTAADTAVYYCAREGEQWFYGLDVWGQGTTVTVSS
VL: EIVLTQSPGTLSLSPGERATLSCRASQSVSSTYLAWYQQKPGQAPRLLIYGSSSRATGIPDRFSGSGSGTDFTLTISRLEPEDFAVYYCQQYGNSFPITFGQGTRLEIK
notes: as for B2
B11: 75110_04F22A (antibody, V domains shown)
VH: B1 VH with N31S, S32Y, M34I, L100Y
VL: B1 VL with N2I, S30Y, H90Q, S94T
notes: as for B2
B12: 75110_04G16A (antibody, V domains shown)
VH: QVQLQESGPGLVKPSQTLSLTCTVSGDSISSGYYYWSWIRQHPGKGLEWIGYISYSGSTYYNPSLKSRLTISVNTSKNQFSLKLSSLTAADTAVYYCARDRPSNFDAFDIWGQGTMVTVSS
VL: B1 VL with N2I, S30G, S32T, S53F, H90Q, F92Y, F97L
notes: as for B2
B13: 75110_05K11A (antibody, V domains shown)
VH: B1 VH with N31S, S32Y, A40P, G61A, L100F
VL: B1 VL with N2I, A19V, S31N, S32T, A85V, H90Q, F92H
notes: as for B2
B14: 75110_05F19A (antibody, V domains shown)
VH: B1 VH with S32Y, M34V, A40P, L100Y, Y101D, M105L
VL: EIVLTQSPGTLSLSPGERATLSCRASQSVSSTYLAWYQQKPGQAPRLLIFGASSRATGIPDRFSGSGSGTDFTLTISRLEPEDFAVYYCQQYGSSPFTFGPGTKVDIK
notes: as for B2
B15: 75110_04P06A (antibody, V domains shown)
VH: B1 VH with S32Y, L100D
VL: B1 VL with N2I, G9D, V29L, S32V, S77N, A85V, H90Q, F92Y
notes: as for B2
B16: 75110_04D20A (antibody, V domains shown)
VH: QVQLQESGPGLVKPSETLSLTCTVSNGSISDYYWSWIRQPAGKGLEWIGRIYTSGSTNYNPSLKSRITMSVDTSKNQFSLELSSVTAADTAVYYCARELERYYFYGVDVWGQGTTVTVSS
VL: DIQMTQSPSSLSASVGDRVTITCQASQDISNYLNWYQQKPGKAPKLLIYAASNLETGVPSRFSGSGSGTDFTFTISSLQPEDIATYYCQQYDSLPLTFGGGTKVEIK
notes: as for B2
B17: 75110_04H17A (antibody, V domains shown)
VH: QVQLQESGPGLVKPSETLSLTCTVSGGSISTYYWSWIRQSAGKGLEWIGRIYTSERPNYNPSLKSRVTMSVDTSKNQFSLKLNSVSAADTAVYYCARELERPYYYGMDVWGQGTTVTVSS
VL: DVQMTQSPSSLSASVGGRVTITCQASQDISNYLNWYQQKPGKAPKLLIYYASNLETGVPSRFSGSGSGTDFTFTISSLQPEDFATYYCQQYDNLPLTFGGGTKVEIK
notes: as for B2
B18: 75110_05A11A (antibody, V domains shown)
VH: EVQLVESGGGLVKPGGSLTLSCAASGFTFSNTWMSWVRQAPGKGLEWVGRIKSKIDGGTTDYAAPVKGRFTISRDDSKNTLYLQMNSLKTEDTAVYYCTTSGTYSSGWGLFDYWGQGTLVTVSS
VL: B17 VL with V2I, G17D, Y50D, A51T, T56A, D70H, F73L, F83I, L96F, K103R
notes: as for B2
B19: 75110_06C16A (antibody, V domains shown)
VH: QVQLQESGPGLVTPSETLSLSCTVSGGSISDYYWSWIRQPGGKGLEWIGRIYSSGSTNYNPSLKSRVTMSVDTSKNQFSLKLSSVTAADTAVYFCARDREDYYYYGMDVWGQGTTVTVSS
VL: B17 VL with V2I, G17D, Q27H, Y50A, T72S, F83I, N93H
notes: as for B2
B20: 75110_05G15A (antibody, V domains shown)
VH: QVQLQESGPGLVKPSQTLSLTCTVSGGSISSGGYFWSWIRQHPGKGLEWIGCIYYSGSTYYIPSLKSRVTISVDTSKNQFSLKLRSVTAADTAVYYCARDGYDYWYFDLWGRGTLVTVSS
VL: not shown
B21: 75110_04K10A (antibody, V domains shown)
VH: EVQLVESGGGLVQPGGSLRLSCAASGFTFSSYWMSWVRQAPGKGLEWVANINQDGSEKYYVDSVKGRFTISRDNAKNSLYLQLNSLRAEDTAMYYCAREGGQWLSLDYWGQGTLVTVSS
VL: DIQMTQSPSSVSASVGDRVTITCRASQGISSWLAWYQQKPGKAPKVLIYGVSSFQSGVPSRFSGSGSGTDFILTISSLQPEDFATYYCQQANSFPWTFGQGTKVEIK
notes: as for B2
B22: 75110_05L07A (antibody, V domains shown)
VH: B21 VH with E57D, A75V, L83I, M93V, S105T
VL: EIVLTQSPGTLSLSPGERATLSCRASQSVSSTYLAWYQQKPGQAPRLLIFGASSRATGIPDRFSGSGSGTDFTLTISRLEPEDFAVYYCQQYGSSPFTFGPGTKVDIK
notes: as for B2

Target: T1, Recombinant human CD4 (R&D Systems, Cat. 10327-CD) (human, UniProt P01730 26-390, limits assumed)
T1 construct: Bought soluble recombinant protein used as analyte at 100 nM; also called huCD4
Assay: BLI (Octet Red384), non-clonal supernatant on AMC sensor, 100 nM human CD4, 1:1 local fit;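 further: hybridoma antibodies captured from supernatant, single CD4 concentration as analyte, association and dissociation phases fitted together, giving single-point kinetic estimates per supernatant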

Row | Binder | Kd [pM] | koff [s⁻¹] | kon [M⁻¹ s⁻¹]
1 | B1 | < 1 | < 1e-07 | 64800

Target: T2, human CD4 on human PBMCs (human, UniProt P01730 26-458)
T2 construct: whole, on cells; the CD4-positive gate was set with the control antibodies OKT4 and RPA-T4; also called hCD4
Assay: FACS, clonal hybridoma supernatant on PBMCs

Row | Binder | % CD4 Stain [%] | gMFI of CD4+ [gMFI]
2 | B2 | 38.9 | 257000
3 | B3 | 26.2 | 67900
4 | B4 | 38.5 | 187000
5 | B5 | 40.6 | 246000
6 | B6 | 36.8 | 162000
7 | B7 | 55.8 | 135000
8 | B8 | 36.4 | 128000
9 | B9 | 31.8 | 64000
10 | B10 | 17.8 | 26100
11 | B11 | 37.7 | 216000
12 | B12 | 36.3 | 240000
13 | B13 | 38.1 | 112000
14 | B14 | 37.1 | 155000
15 | B15 | 36.9 | 241000
16 | B16 | 33.2 | 241000
17 | B17 | 28.8 | 151000
18 | B18 | 35.9 | 246000
19 | B19 | 33.1 | 270000
20 | B20 | 31.6 | 326000
21 | B21 | 35.6 | 149000
22 | B22 | 37.9 | 156000
